# Measurements published in patent US20250325630A1, “HOMODIMER FUSION PROTEINS FOR TREATING ATOPIC DERMATITIS” (Intervet Inc., priority 2021, published 2025).
# T1: canine IL-4 (canine, UniProt O77762 25-132, biotin-labeled in the Octet assay (site not stated))
# T1 sequence (looked up): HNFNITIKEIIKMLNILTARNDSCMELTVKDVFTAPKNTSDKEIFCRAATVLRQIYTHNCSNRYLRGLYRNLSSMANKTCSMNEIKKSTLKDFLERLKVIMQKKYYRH
# T2: canine IL-13 (canine, UniProt Q9N0W9 19-131, limits assumed, biotin-labeled in the Octet assay (site not stated))
# T2 sequence (looked up): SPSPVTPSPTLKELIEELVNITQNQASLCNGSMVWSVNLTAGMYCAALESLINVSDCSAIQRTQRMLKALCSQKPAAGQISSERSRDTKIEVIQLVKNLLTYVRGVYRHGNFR
# Columns and labels:
# [1] = biological target: T1, canine IL-4; experiment: cell-based or functional assay
# [2] = biological target: T2, canine IL-13; experiment: cell-based or functional assay
# [3] = biological target: T1, canine IL-4; experiment: BLI (Octet HTX), biotin-cIL-4 on SA biosensors; ND = Binding Not Detected
# Method: (§1) The binding constants for the cFc fusion proteins provided in Tables 3 and 4 below, were determined using OCTET® HTX. All kinetics measurements were performed by OCTET® HTX using SA® biosensors and DATA ACQUISITION® 12.0 software. 10 μg/mL of biotin-labeled antigen, either canine IL-4 (cIL-4) or canine IL-13 (cIL-13) were loaded onto the SAR biosensors for 120 seconds. Next, the biosensors were placed into 1×pH 7.0 TBS/Casein buffer for 60 seconds for the blocking phase. For the association phase, antigen loaded biosensors were placed into 2-fold serial dilutions from 1 μM down to 15.6 nM of the wild-type, the bispecific, or the FcRn-mutant receptor Fc-fusions that recognized the cIL-4 or cIL-13 antigen in 1×pH 7.0 TBS/Casein buffer for 30 seconds. The last well was buffer alone and that sensor was used for reference sensor subtraction. Finally, the biosensors were placed into 1×pH 7.0 TBS/Casein buffer for 120 seconds for the dissociation phase. The results were then analyzed using Data Analysis 12.0 software and the curves were fitted using a 1:1 binding model.
# [4] = biological target: T2, canine IL-13; experiment: BLI (Octet); summary table, rounded from Table 4
# [5] = biological target: T2, canine IL-13; experiment: cell-based or functional assay; remark: listed apart in the source
# [6] = biological target: T1, canine IL-4; experiment: cell-based or functional assay; remark: listed apart in the source
# [7] = biological target: T2, canine IL-13; experiment: cell-based or functional assay; remark: listed apart in the source
# [8] = biological target: T2, canine IL-13; experiment: BLI (Octet HTX), biotin-cIL-13 on SA biosensors, fusion protein in solution, 1:1 fit
# Method: as §1
binder,measurement,setting,value
"cIL-4Rα-13Rα2 ZW1-cFc (Fc fusion, also called cIL4Rα-IL13Rα2_ZW1-cFc; cIL-4Rα-IL13Rα2_ZW1-cFc) chain 1: VKVLHEPSCFSDYISTSVCQWKMDHPTNCSAELRLSYQLDFMGSENHTCVPENREDSVCVCSMPIDDAVEADVYQLDLWAGQQLLWSGSFQPSKHVKPRTPGNLTVHPNISHTWLLMWTNPYPTENHLHSELTYMVNVSNDNDPEDFKVYNVTYMGPTLRLAASTLKSGASYSARVRAWAQTYNSTWSDWSPSTTWLNYYEPWEQHLPPKRENGRVPRPPDCPKCPAPEMLGGPSVFIFPPKPKDTLLIARTPEVTCVVVDLDPEDPEVQISWFVDGKQMQTAKTQPREEQFNGTYRVVSVLPIGHQDWLKGKQFTCKVNNKALPSPIERTISKARGQAHQPSVYVYPPSREELSKNTVSLTCLIKDFFPPDIDVEWQSNGQQEPESKYRTTPPQLDEDGSYALVSKLSVDKSRWQRGDTFICAVMHEALHNHYTQESLSHSPGK chain 2: SMLSNAEIKVNPPQDFEIVDPGYLGYLSLQWQPPLFPDNFKECTIEYELKYRNIDSENWKTIITKNLHYKDGFDLNKGIEAKINTLLPAQCTNGSEVRSSWAETTYWTSPQGNRETKIQDMDCVYYNWQYLVCSWKPGMGVHFDTNYQLFYWYEGLDHSAECTDYIKVNGKNMGCRFPYLESSDYKDFYICVNGSSESQPIRPSYFIFQLQNIVKPMPPDYLSLTVKNSEEINLKWNMPKGPIPAKCFIYEIEFTEDGTTWVTTTVENEIQITRTSNESQKLCFLVRSKVNIYCSDDGIWSEWSDEQCWKGDIWKETPKRENGRVPRPPDCPKCPAPEMLGGPSVFIFPPKPKDTLLIARTPEVTCVVVDLDPEDPEVQISWFVDGKQMQTAKTQPREEQFNGTYRVVSVLPIGHQDWLKGKQFTCKVNNKALPSPIERTISKARGQAHQPSVYVLPPSREELSKNTVSLLCLIKDFFPPDIDVEWQSNGQQEPESKYLTWPPQLDEDGSYFLYSKLSVDKSRWQRGDTFICAVMHEALHNHYTQESLSHSPGK",IL-4 IC50 (inhibition of cIL-4 mediated STAT6 phosphorylation in DH82 cells),[1],184 nM
same,"fold change of the concentration that inhibits 50% of the cIL-13 mediated STAT6 phosphorylation in DH82 cells, against cIL-13Rα2-cFc",[2],~200 fold higher
same,binding result,[3],no binding (tested: 1 µM (highest concentration tested))
same,Kd,[4],4 nM
same,"IL-13 (IC50), summary table",[5],30 nM
same,"IL-4 (IC50), summary table",[6],200 nM
same,IL-13 IC50 (inhibition of cIL-13 mediated STAT6 phosphorylation in DH82 cells),[7],29.4 nM
same,Kd,[8],4.15 nM
same,koff,[8],0.000135 s⁻¹
same,kon,[8],32600 M⁻¹ s⁻¹
